Experimental data as given in the supplement of paper PMC7877785.
± gives the uncertainty stated by the source.

Assay: self-splicing fitness, log relative to wild type (ln ratio); higher = more splicing; Tetrahymena group I intron in knt gene, E. coli kanamycin selection, DiMSum; sequences stand for … in CUCUCU…GGAGGGAAAAGUUAUCAGGCAUGCACCUGGUAGCUAGUCUUUAAACCAAUAGAUUGCAUCGGUUUAAAAGGCAAGACCGUCAAAUUGCGGGAAAGGGGUCAACAGCCGUUCAGUACCAAGUCUCAGGGGAAACUUUGAGAUGGCCUUGCAAAGGGUAUGGUAAUAAGCUGACGGACAUGGUCCUAACCACGCAGCCAAGUCCUAAGUCAACAGAUCUUCUGUUGAUAUGGAUGCAGUUCACAGACUAAAUGUCGGUCGGGGAAGAUGUAUUCUUCUCAUAAGAUAUAGUCGGACCUCUCCUUAAUGGGAGCUAGCGGAUGAAGUGAUGCAACACUGGAGCCGCUGGGAACUAAUUUGUAUGCGAAAGUAUAUUGAUUAGUUUUGGAGUACUCGUGGUCG
Method in brief: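 Fitness was computed with DiMSum as the error-weighted combination of replicate fold changes, kanamycin versus none, each normalised to wild type. The library randomised all eight intron nucleotides of the P1ex region, with the intron placed in the knt kanamycin-resistance gene on pET-22b(+) in E. coli BL21(DE3). Six replicate transformations were grown overnight at 37°C or 30°C on LB agar with or without 25 μg/mL kanamycin, plus 100 μg/mL carbenicillin, 50 μM IPTG and 0.2% rhamnose. Pooled colonies were amplicon-sequenced on an Illumina HiSeq 2500.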

Sequence	self-splicing fitness (ln) (30 °C)	self-splicing fitness (ln) (37 °C)
UUCAAGCAAUAUUACGGUGC	-2.77 ± 0.42	-0.868 ± 0.3
CUUCAGCAAUAUUACGCUCG	-2.42 ± 0.15	-0.933 ± 0.26
UGGUAGCAAUAUUACGCUAU	-4.7 ± 0.42	-2.87 ± 0.23
CCUAAGCAAUAUUACGGUUA	-3.71 ± 0.16	-2.67 ± 0.14
GGAGAGCAAUAUUACGCAGC	-1.26 ± 0.17	-2.78 ± 0.26
CGCCAGCAAUAUUACGUCAG	-0.444 ± 0.073	0.203 ± 0.095
GUGUAGCAAUAUUACGGGCC	-1.6 ± 0.23	-1.85 ± 0.48
CGCAAGCAAUAUUACGAUAU	-2.7 ± 0.14	-1.91 ± 0.13
CGCCAGCAAUAUUACGCCGA	-2.87 ± 0.23	-1.65 ± 0.19
AUGAAGCAAUAUUACGGUGA	-0.607 ± 0.069	0.195 ± 0.096
GAGGAGCAAUAUUACGUAAU	-3.87 ± 0.22	-2.54 ± 0.19
ACCAAGCAAUAUUACGUGUC	-2.94 ± 0.11	-3.34 ± 0.18
GCCCAGCAAUAUUACGAAUU	-2.18 ± 0.077	-0.934 ± 0.094
GAACAGCAAUAUUACGGCGA	-1.38 ± 0.09	-0.318 ± 0.077
GCUCAGCAAUAUUACGACCC	-0.644 ± 0.14	0.378 ± 0.19
GCCAAGCAAUAUUACGUCAC	-3.8 ± 0.19	-1.8 ± 0.16
UAAAAGCAAUAUUACGGUGC	-3.65 ± 0.42	-2.92 ± 0.35
UGACAGCAAUAUUACGCUUA	-1.26 ± 0.088	-0.0997 ± 0.094
CGUCAGCAAUAUUACGGUCG	-2.52 ± 0.11	-2 ± 0.15
CGGUAGCAAUAUUACGUAGG	-0.647 ± 0.051	0.647 ± 0.08
AGUGAGCAAUAUUACGUUGC	-3.28 ± 0.2	-2.18 ± 0.24
AGCUAGCAAUAUUACGACUC	-2.01 ± 0.16	-1.24 ± 0.15
CUCCAGCAAUAUUACGAUGA	-2.36 ± 0.25	-2.7 ± 0.27
GACAAGCAAUAUUACGUUCC	-3.15 ± 0.24	-2.8 ± 0.31
AGGGAGCAAUAUUACGACCU	-4.11 ± 0.33	-1.67 ± 0.25

Sequence	self-splicing fitness (ln) (30 °C)	self-splicing fitness (ln) (37 °C)
UAAAAGCAAUAUUACGCCAU	-3.62 ± 0.26	-2.82 ± 0.3
UCCCAGCAAUAUUACGCUUU	-2.7 ± 0.16	-2 ± 0.15
CUUGAGCAAUAUUACGUAGU	-3.28 ± 0.3	-2.11 ± 0.33
UGGCAGCAAUAUUACGGAAU	-2.54 ± 0.12	-1.22 ± 0.17
GUGAAGCAAUAUUACGAUUC	-0.545 ± 0.098	0.0735 ± 0.17
GCCGAGCAAUAUUACGAUAC		-1.59 ± 0.35
CCGAAGCAAUAUUACGCAAU	-3.92 ± 0.4	-1.94 ± 0.23
ACUCAGCAAUAUUACGUAAG	-0.973 ± 0.052	-0.421 ± 0.078
AUUCAGCAAUAUUACGCUGU	-2.87 ± 0.21	-1.09 ± 0.18
AGAGAGCAAUAUUACGUGUA	-2.73 ± 0.3	-2.78 ± 0.32
UCGAAGCAAUAUUACGCAAC	-2.37 ± 0.42	
UGAAAGCAAUAUUACGGAGC	-3.81 ± 0.37	-2.81 ± 0.26
GCUUAGCAAUAUUACGCUCU	-0.864 ± 0.12	-0.504 ± 0.12
GCUCAGCAAUAUUACGGUCG	-2.35 ± 0.14	-0.924 ± 0.14
AGCGAGCAAUAUUACGUGAC	-3.4 ± 0.28	
GUAUAGCAAUAUUACGAUGC	-2.65 ± 0.2	-2.55 ± 0.24
CGCCAGCAAUAUUACGAUGU	-2.9 ± 0.12	-1.25 ± 0.1
CGACAGCAAUAUUACGGGGG	-2.92 ± 0.094	-2.51 ± 0.11
UAUAAGCAAUAUUACGAAUA	-1.55 ± 0.24	-0.822 ± 0.19
UUAAAGCAAUAUUACGAAGC	-3.34 ± 0.32	-2.25 ± 0.28
CCGCAGCAAUAUUACGCUCU	-4.04 ± 0.42	-2.18 ± 0.2
GCCAAGCAAUAUUACGCUAU	-1.23 ± 0.064	-0.923 ± 0.078
GGUUAGCAAUAUUACGCUGC	-1.38 ± 0.26	
UGUGAGCAAUAUUACGUGAC	-4.58 ± 0.32	-3.08 ± 0.25
AGAUAGCAAUAUUACGCGCC	-0.504 ± 0.15	-0.626 ± 0.27

Sequence	self-splicing fitness (ln) (30 °C)	self-splicing fitness (ln) (37 °C)
AAUUAGCAAUAUUACGCAUC	-2.79 ± 0.24	-1.15 ± 0.2
CUGGAGCAAUAUUACGAUUU	-4.07 ± 0.46	-2.01 ± 0.34
GACUAGCAAUAUUACGUUCC	-3.69 ± 0.3	-2.17 ± 0.23
CGUAAGCAAUAUUACGUCAG	-1.56 ± 0.11	0.0936 ± 0.11
GGGCAGCAAUAUUACGCGUU	-0.662 ± 0.073	-0.349 ± 0.087
GCGGAGCAAUAUUACGUACG	-2.97 ± 0.28	-2.71 ± 0.44
AUAUAGCAAUAUUACGGUUG	-3.18 ± 0.2	-2.24 ± 0.26
GCUUAGCAAUAUUACGUACU	-0.712 ± 0.1	-0.0558 ± 0.13
GUCUAGCAAUAUUACGUCGG	-3.43 ± 0.2	-2.51 ± 0.2
GAUUAGCAAUAUUACGACAC	-0.38 ± 0.17	-1.07 ± 0.17
ACUCAGCAAUAUUACGUAUG	-3.11 ± 0.24	-1.35 ± 0.16
CGAAAGCAAUAUUACGAAGU	-3.07 ± 0.15	-1.84 ± 0.19
CGAAAGCAAUAUUACGCCGC		-2.13 ± 0.36
CAUCAGCAAUAUUACGCAGC	-3.35 ± 0.14	-1.29 ± 0.12
AUGAAGCAAUAUUACGGACG	-0.554 ± 0.066	0.536 ± 0.091
AAUAAGCAAUAUUACGCAGA	-3.73 ± 0.3	-2.38 ± 0.23
ACGAAGCAAUAUUACGCUCU	-1.35 ± 0.094	-0.15 ± 0.1
GCUUAGCAAUAUUACGAUGU	-0.306 ± 0.083	-0.00189 ± 0.11
UCACAGCAAUAUUACGCAAU		-2.13 ± 0.14
AACCAGCAAUAUUACGUCCG	-1.56 ± 0.073	-0.0163 ± 0.091
AGGUAGCAAUAUUACGAUGA	-0.948 ± 0.016	-0.562 ± 0.034
UGUCAGCAAUAUUACGCAAU	-1.81 ± 0.14	-2.24 ± 0.2
CCCCAGCAAUAUUACGUUCA	-2.97 ± 0.12	-2.84 ± 0.2
GCGAAGCAAUAUUACGGUUC	-3.23 ± 0.2	-1.24 ± 0.18
CCUCAGCAAUAUUACGAGAG	-2.75 ± 0.13	-1.47 ± 0.1

Sequence	self-splicing fitness (ln) (30 °C)	self-splicing fitness (ln) (37 °C)
UUAAAGCAAUAUUACGAGAU	-3.41 ± 0.21	-2.19 ± 0.21
GGUAAGCAAUAUUACGGGCA	-0.438 ± 0.082	0.103 ± 0.1
GCGCAGCAAUAUUACGUUGG	-1.81 ± 0.06	-1.76 ± 0.097
CACUAGCAAUAUUACGUAUC	-3.43 ± 0.25	-2.27 ± 0.19
AUGCAGCAAUAUUACGACCC	-0.995 ± 0.2	-0.303 ± 0.31
GCCAAGCAAUAUUACGGUCC	-2.49 ± 0.11	-0.771 ± 0.11
AACCAGCAAUAUUACGAAAU	-1.08 ± 0.058	-0.397 ± 0.074
CGCGAGCAAUAUUACGUUAU	-3.91 ± 0.21	-3.49 ± 0.3
GAAGAGCAAUAUUACGCACU	-2.39 ± 0.17	-1.33 ± 0.18
ACAAAGCAAUAUUACGUGGA	-3.55 ± 0.15	-2.44 ± 0.11
ACUUAGCAAUAUUACGGAUG	-1.73 ± 0.13	-1.53 ± 0.2
GAAAAGCAAUAUUACGGAUU	-2.03 ± 0.09	-1.03 ± 0.11
ACUUAGCAAUAUUACGUCCU	-0.527 ± 0.085	-0.132 ± 0.13
ACGUAGCAAUAUUACGGUGA	-2.3 ± 0.2	-0.727 ± 0.15
GUCAAGCAAUAUUACGUAUA	-2.31 ± 0.13	-0.798 ± 0.14
AAGGAGCAAUAUUACGGCUA	-1.92 ± 0.12	-0.126 ± 0.13
UCGAAGCAAUAUUACGCGCG	-1.26 ± 0.1	-0.735 ± 0.12
UUCAAGCAAUAUUACGCGCG	-1.39 ± 0.082	-0.634 ± 0.13
GGCUAGCAAUAUUACGGGGA	-2.17 ± 0.17	-1.25 ± 0.17
GGUCAGCAAUAUUACGUAAU	-0.42 ± 0.11	0.68 ± 0.14
AGGGAGCAAUAUUACGGUUC		-1.7 ± 0.42
CGUCAGCAAUAUUACGGUUG	-0.45 ± 0.065	-0.256 ± 0.081
